PMC9304779, “Biochemical characterization of the first step in sulfonolipid biosynthesis in Alistipes finegoldii” (The Journal of Biological Chemistry, 2022)
One block for each molecule: values may come before it.

How the values were obtained:
[1] = biological target: T1, SulA (cysteate acyl-ACP transferase) (Alistipes finegoldii, UniProt I3YKQ4); assay: X-ray crystal structure […] Å (SeMet-SulA); UV-Vis […] nm internal aldimine; format: binding; conditions: covalent, internal aldimine at Lys251
T1 construct: gene Alfi_1224
T1 sequence (I3YKQ4 1-423): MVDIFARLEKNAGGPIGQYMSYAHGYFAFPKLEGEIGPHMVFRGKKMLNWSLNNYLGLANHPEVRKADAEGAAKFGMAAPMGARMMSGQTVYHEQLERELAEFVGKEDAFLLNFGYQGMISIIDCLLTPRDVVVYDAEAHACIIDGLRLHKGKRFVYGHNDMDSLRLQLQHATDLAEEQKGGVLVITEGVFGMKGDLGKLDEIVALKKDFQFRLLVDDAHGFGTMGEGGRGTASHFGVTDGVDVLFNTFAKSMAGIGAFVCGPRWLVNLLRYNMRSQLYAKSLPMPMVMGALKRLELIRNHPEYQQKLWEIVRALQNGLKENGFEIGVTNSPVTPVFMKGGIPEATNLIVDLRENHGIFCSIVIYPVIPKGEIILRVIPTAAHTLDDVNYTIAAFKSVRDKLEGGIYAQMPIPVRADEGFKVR

[2] = biological target: T2, SulA (cysteate acyl-ACP transferase) (Alistipes finegoldii, UniProt I3YKQ4, K281A); assay: UV-Vis spectral titration (external aldimine, A430); format: binding
T2 construct: gene Alfi_1224
T2 sequence (I3YKQ4 1-423 K281A): T1 sequence (I3YKQ4 1-423)
Excerpt: UV-Vis spectral titration (external aldimine, A430) on SulA (cysteate acyl-ACP transferase) | SulA(K281A) bound cysteate and formed the PLP-cysteate external aldimine normally

[3] = biological target: T1, SulA (cysteate acyl-ACP transferase); assay: as above; format: binding
[4] = biological target: cysteate acyl-ACP transferase (SulA), His-tagged (Alistipes finegoldii) (UniProt I3YKQ4)
[5] = biological target: cysteate acyl-ACP transferase (SulA), His-tagged (Alistipes finegoldii) (UniProt I3YKQ4); assay: AUC; sedimentation velocity, 150 mM NaCl, 1 mM DTT, 20 mM potassium phosphate buffer, pH 7.5, 20 °C, 50,000 rpm, interference optics, c(s) in SEDFIT
[6] = biological target: cysteate acyl-ACP transferase (SulA), His-tagged (Alistipes finegoldii) (UniProt I3YKQ4); assay: SEC; calibrated HiLoad 16/600 Superdex 200 column, 200 mM NaCl, 20 mM Tris, pH 8.0; single 85 kDa species against standards
[7] = biological target: cysteate acyl-ACP transferase (SulA), His-tagged (Alistipes finegoldii) (UniProt I3YKQ4); assay: AUC; sedimentation velocity, 150 mM NaCl, 1 mM DTT, 20 mM potassium phosphate buffer, pH 7.5, 20 °C, 50,000 rpm, interference optics, c(s) in SEDFIT; remark: listed apart in the source

Molecule: Cc1ncc(COP(=O)(O)O)c(C=O)c1O [PLP]
- X-ray crystal structure 2.9 Å (SeMet-SulA); UV-Vis 390 nm internal aldimine [1]: definitively identifies Lys251 as the PLP attachment site

Molecule: N[C@@H](CS(=O)(=O)O)C(=O)O [cysteate]
- Kd [2]: 6.11 ± 1.1 mM
- Kd [3]: 4.86 ± 0.08 mM

- SulA enzyme activity (formation of 3-keto[14C]capnine, TLC) against 0-200 μM [14C]16:0-ACP with 100 mM cysteate; K0.5 of an allosteric sigmoidal fit [4]: 26.7 µM
Molecule: [14C]16:0-acyl carrier protein (from UniProt P0A6A8 1-78) (natural protein)

- stoichiometry N [5]: 2
- stoichiometry N [6]: 2
- stoichiometry N [7]: 4
Molecule: cysteate acyl-ACP transferase (SulA), His-tagged (from UniProt I3YKQ4 1-423) (enzyme)
